Data reported in patent publication US20110229459A1 (Chugai, published 2011).
Numbering of substitutions follows the chain as printed. Values belong to the binder of their own block, whether it stands above or below them.

Key:
[1] = target: T1, cytoplasmic domain-lacking human NR10 on CHO cells (human, UniProt Q8NI17 20-553); experiment: FMAT competition on hNR10-expressing CHO cells; blocked ligand: FMAT Blue-labeled hIL-31; mean +/- S.D. (n=3)
T1 construct: The construct lacks the cytoplasmic domain; also called hNR10-expressing CHO cells; hNR10
T1 sequence: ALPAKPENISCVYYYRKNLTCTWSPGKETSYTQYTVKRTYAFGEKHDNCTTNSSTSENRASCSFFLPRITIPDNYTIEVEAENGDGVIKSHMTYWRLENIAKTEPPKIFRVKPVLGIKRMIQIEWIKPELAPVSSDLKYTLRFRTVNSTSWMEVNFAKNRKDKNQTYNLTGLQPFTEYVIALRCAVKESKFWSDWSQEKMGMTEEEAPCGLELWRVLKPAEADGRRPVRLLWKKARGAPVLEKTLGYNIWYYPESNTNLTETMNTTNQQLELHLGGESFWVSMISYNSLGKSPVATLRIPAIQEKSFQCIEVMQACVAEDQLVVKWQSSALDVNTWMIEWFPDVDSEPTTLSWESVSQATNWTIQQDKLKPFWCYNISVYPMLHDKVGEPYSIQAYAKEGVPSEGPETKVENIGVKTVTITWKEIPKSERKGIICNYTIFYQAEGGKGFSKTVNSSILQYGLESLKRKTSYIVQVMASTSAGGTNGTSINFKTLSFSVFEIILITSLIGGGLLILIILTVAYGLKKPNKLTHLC
Method: Antibodies were assessed for the activity of inhibiting the IL-31/NR10 binding by using hNR10-expressing CHO cells as described below. The chimeric NS22 antibody and NS22_H0L0 (H chain, H0-SKSC/SEQ ID NO: 54; L chain, L0/SEQ ID NO: 56) were diluted at an appropriate concentration using Assay buffer (10 mM HEPES, 140 mM NaCl, 2.5 mM CaCl₂, 3 mM MgCl₂, 2% FBS, 0.01% NaN₃, pH7.4), and further eight serial dilutions were prepared at a common dilution ration of 2. The dilutions were added at 40 μl/well to plates (96-Well FMAT Plates, Applied Biosystems). Then, FMAT Blue-labeled hIL-31 was diluted 400 times with Assay buffer, and added at 20 μl/well. Finally, a cell suspension adjusted to 2.5×10⁵ cells/ml using Assay buffer was added at 40 μl/well (final 1×10⁴ cells/well). Two hours after addition of cells, the fluorescence (FL1) was measured using the 8200 Cellular Detection System (Applied Biosystems).
Each variant was tested for the activity of inhibiting the hIL-31/hNR10 binding by using FMAT. The test was carried out according to the method as described in Example 4.

rhNR10 = target: T2, rhNR10 (human, UniProt Q8NI17 20-519, limits assumed); experiment: SPR (Biacore T100): antibody captured on Protein A, rhNR10 as analyte
T2 construct: also called recombinant human NR10; IL-31 receptor
T2 sequence: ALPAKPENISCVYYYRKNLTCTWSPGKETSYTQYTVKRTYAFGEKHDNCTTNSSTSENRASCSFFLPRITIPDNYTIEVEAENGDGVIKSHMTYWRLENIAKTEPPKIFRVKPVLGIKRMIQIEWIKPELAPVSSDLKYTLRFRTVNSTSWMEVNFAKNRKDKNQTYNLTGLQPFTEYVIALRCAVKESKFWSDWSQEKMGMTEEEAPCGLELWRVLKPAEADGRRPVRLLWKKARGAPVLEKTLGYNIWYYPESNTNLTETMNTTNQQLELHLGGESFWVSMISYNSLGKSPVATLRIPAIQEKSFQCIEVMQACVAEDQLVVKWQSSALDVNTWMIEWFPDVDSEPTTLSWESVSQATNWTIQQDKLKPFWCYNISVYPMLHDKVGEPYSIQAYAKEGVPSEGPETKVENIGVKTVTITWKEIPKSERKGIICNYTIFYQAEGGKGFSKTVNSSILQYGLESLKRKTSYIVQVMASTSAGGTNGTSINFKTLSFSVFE
Method: Kinetic analysis of the antigen-antibody reaction was carried out using Biacore T100 (GE Healthcare Biosciences). The antigen-antibody interaction was measured by immobilizing rec-Protein A (hereinafter Protein A) (ZYMED) onto a sensor chip, capturing an antibody on the immobilized Protein A, and then reacting the antigen as an analyte. Various concentrations of rhNR10 were used as the antigen. The kinetic parameters, association rate constant kₐ (1/Ms) and dissociation rate constant kd (1/s), were calculated from the sensorgrams obtained by the measurement. Then, KD (M) was determined based on the rate constants. Each parameter was determined using Biacore T100 Evaluation Software version 1.1 (GE Healthcare Biosciences).
The running buffer used was HBS-EP+. Each antibody was prepared at 0.25 μg/ml, or prepared so that about 100 RU would bind to Protein A. rhNR10 used as an analyte was prepared at 0, 38.5, 77.0, and 154 nM, or at 0, 19.25, and 77.01 nM using HBS-EP+. In the measurement, first, the antibody solution was captured on Protein A, and an analyte solution was reacted at a flow rate of 20 μL/min for three minutes. Then, the solution was switched to HBS-EP+, and the dissociation phase was measured for five minutes. […] The obtained sensorgrams were kinetically analyzed using the Biacore-specific data analysis software, Biacore T100 Evaluation Software Version 1.1.

soluble human FcRn = target: T3, soluble human FcRn (human, UniProt P55899 24-290; P16213 21-119); experiment: SPR (Biacore 3000), pH 6.0: antibody captured on the chip, human FcRn as analyte, steady state affinity
T3 construct: The stated ranges include the signal regions; also called hFcRn; complex of FcRn and β2-microglobulin
Method: The binding to human FcRn was assessed using Biacore 3000.
The affinity was calculated using BIAevaluation software. The obtained sensorgram was used to calculate the amount of hFcRn bound to the antibody immediately before the end of human FcRn injection. This was fitted by the steady state affinity method to calculate the affinity of human FcRn for the antibody.
The binding activities of huPM1-IgG1 and huPM1-M58 to human FcRn were assessed using BIAcore.

IC50 (read off the curve) [1]: ~0.09 µg/mL
B1: Hp9 variant of H0L0 (antibody, V domains shown)
VH: QVQLVQSGAEVKKPGASVKVSCKASGYTFTGYIMNWVRQAPGQGLEWMGLINPYNGGTSYNQQFKGRVTITADESTSTAYMELSSLRSEDTAVYYCARDGYDDGPYTMDYWGQGTLVTVSS
VL: DIQMTQSPSSLSASVGDRVTITCRTSENIYSFLAWYQQKPGKAPKLLIYNAKTLAKGVPSRFSGSGSGTDFTLTISSLQPEDFATYYCQHHYESPLTFGGGTKVEIKR
notes: Variant of H0L0; also called Hp9-VH

fold affinity against H0L0 (rhNR10): ~2 times
B2: H0L12 (H chain, H0-M58; L chain, L12) (antibody, V domains shown)
VH: B1 VH with Q63K
VL: B1 VL with R24Q, N28D, L33V, K52Q, L54E, K56Q, E93D

fold binding activity against huPM1-IgG1 (soluble human FcRn): ~1.4 times
B3: huPM1-M58 (humanized anti-IL-6 receptor antibody with constant region M58) (antibody)
heavy: QVQLQESGPGLVRPSQTLSLTCTVSGYSITSDHAWSWVRQPPGRGLEWIGYISYSGITTYNPSLKSRVTMLRDTSKNQFSLRLSSVTAADTAVYYCARSLARTTAMDYWGQGSLVTVSSASTKGPSVFPLAPSSKSTSGGTAALGCLVKDYFPEPVTVSWNSGALTSGVHTFPAVLQSSGLYSLSSVVTVPSSNFGTQTYTCNVDHKPSNTKVDKTVERKSCVECPPCPAPPVAGPSVFLFPPKPKDTLMISRTPEVTCVVVDVSQEDPEVQFNWYVDGVEVHNAKTKPREEQFNSTFRVVSVLTVVHQDWLNGKEYKCKVSNKGLPAPIEKTISKTKGQPREPQVYTLPPSQEEMTKNQVSLTCLVKGFYPSDIAVEWESNGQPENNYKTTPPMLDSDGSFFLYSKLTVDKSRWQEGNVFSCSVMHEALHNHYTQKSLSLSP
light: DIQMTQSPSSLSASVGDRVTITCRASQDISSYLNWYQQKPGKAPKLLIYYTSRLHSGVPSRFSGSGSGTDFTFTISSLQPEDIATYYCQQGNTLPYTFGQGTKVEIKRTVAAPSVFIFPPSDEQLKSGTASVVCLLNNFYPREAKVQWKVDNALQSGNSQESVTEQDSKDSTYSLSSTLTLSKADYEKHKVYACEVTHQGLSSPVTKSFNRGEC
notes: copies: 2 + 2
